This is an account of results in PMC3414502, “γ-Synuclein Interacts with Phospholipase Cβ2 to Modulate G Protein Activation” (PLoS ONE, 2012).

The target of this experiment is T1, His6-PLCβ2 (phospholipase Cβ2) (UniProt Q00722 1-1185, CPM (thiol-reactive coumarin) on Cys side chains where printed as CPM-PLCβ2; Dabcyl where printed as PLCβ2 with DAB acceptor; unlabelled elsewhere).
T1 construct: phospholipase C β2; called the full length / whole enzyme; printed mass 133.7 kDa; One construct used CPM-labelled, Dabcyl-labelled or unlabelled; also called PLCß2; CPM-PLCβ2; source: Sf9 cells, baculovirus system, purified
Description: other fluorescence titration; activated Gαq and PLCß2, without γ-synuclein; which partner was labelled is not stated. Conditions: both partners purified.

T1 sequence (Q00722 whole entry): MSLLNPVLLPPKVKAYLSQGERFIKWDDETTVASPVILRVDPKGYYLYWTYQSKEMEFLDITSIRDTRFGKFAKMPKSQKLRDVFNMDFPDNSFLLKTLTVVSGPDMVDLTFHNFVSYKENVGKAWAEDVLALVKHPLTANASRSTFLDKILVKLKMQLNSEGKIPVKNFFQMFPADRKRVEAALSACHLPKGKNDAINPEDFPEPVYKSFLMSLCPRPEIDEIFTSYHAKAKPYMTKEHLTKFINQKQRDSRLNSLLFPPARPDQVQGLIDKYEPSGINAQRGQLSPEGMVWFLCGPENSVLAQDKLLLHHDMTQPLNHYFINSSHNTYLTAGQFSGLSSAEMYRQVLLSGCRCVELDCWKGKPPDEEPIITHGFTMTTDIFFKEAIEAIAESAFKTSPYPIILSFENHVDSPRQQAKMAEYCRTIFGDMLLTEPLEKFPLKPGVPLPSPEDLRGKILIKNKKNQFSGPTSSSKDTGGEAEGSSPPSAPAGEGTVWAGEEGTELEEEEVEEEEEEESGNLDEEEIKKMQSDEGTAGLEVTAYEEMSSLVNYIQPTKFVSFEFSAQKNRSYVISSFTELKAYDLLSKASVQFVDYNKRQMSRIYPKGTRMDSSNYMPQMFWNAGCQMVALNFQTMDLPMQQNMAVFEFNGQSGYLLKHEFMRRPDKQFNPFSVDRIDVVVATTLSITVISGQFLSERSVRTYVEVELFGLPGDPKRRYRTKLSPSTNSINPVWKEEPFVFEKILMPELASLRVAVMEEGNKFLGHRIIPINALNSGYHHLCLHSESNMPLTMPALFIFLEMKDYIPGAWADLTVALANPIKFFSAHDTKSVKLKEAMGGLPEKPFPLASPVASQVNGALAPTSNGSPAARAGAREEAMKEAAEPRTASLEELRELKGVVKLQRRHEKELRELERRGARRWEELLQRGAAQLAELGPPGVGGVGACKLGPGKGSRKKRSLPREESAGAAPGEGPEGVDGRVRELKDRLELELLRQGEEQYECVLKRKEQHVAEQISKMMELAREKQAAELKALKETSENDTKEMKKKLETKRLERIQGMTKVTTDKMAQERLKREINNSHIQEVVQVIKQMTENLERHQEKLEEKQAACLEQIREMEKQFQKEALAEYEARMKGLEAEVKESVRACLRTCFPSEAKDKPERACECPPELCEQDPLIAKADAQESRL

B1: Gαq(GTPγS) (natural protein, UniProt P50148 1-359, looked up)
chain: MTLESIMACCLSEEAKEARRINDEIERQLRRDKRDARRELKLLLLGTGESGKSTFIKQMRIIHGSGYSDEDKRGFTKLVYQNIFTAMQAMIRAMDTLKIPYKYEHNKAHAQLVREVDVEKVSAFENPYVDAIKSLWNDPGIQECYDRRREYQLSDSTKYYLNDLDRVADPAYLPTQQDVLRVRVPTTGIIEYPFDLQSVIFRMVDVGGQRSERRKWIHCFENVTSIMFLVALSEYDQVLVESDNENRMEESKALFRTIITYPWFQNSSVILFLNKKDLLEEKIMYSHLVDYFPEYDGPQRDAQAAREFILKMFVDLNPDSDKIIYSHFTCATDTENIRFVFAAVKDTILQLNLKEYNLV
notes: source: Sf9 cells, co-expressed with Gβ1 and His6-Gγ2
As for B1, binding was characterised by a dissociation constant (Kd) of 0.3 ± 0.2 nM.
